Measurements from patent publication US20260049138A1 (Chugai, published 2026).

target: T1, CD3ε homodimer protein (human, UniProt P07766 23-126, limits assumed); test: SPR Biacore T200, CD3ε homodimer on chip;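 further: Light-chain single-residue variant antibodies injected over amine-coupled CD3ε homodimer on a CM4 chip at 25 °C, bound amount divided by that of the GLS3000-containing antibody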
T1 construct: also called CD3 (CD3ε)
T1 sequence (P07766 23-126 limits assumed): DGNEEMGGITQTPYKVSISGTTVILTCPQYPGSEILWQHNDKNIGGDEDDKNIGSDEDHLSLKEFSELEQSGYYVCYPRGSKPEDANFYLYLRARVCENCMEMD

| ratio of amount bound vs unaltered GLS3000 | Binder |
| --- | --- |
| 0.58 | GLS3000 V94W one-arm antibody (antibody, human IgG1, kappa, L234A L235A, N297A, name in Kabat numbering) heavy: QVQLVESGGGVVQPGRSLRLSCAASGFTFSNAWMHWVRQAPGKGLEWVAQIKAKSNNYATYYAESVKGRFTISRDDSKNSLYLQMNSLKTEDTAVYYCRYVHYGAYYGVDAWGQGTTVTVSSASTKGPSVFPLAPSSKSTSGGTAALGCLVKDYFPEPVTVSWNSGALTSGVHTFPAVLQSSGLYSLSSVVTVPSSSLGTQTYICNVNHKPSNTKVDKKVEPKSCDKTHTCPPCPAPEAAGGPSVFLFPPKPKDTLMISRTPEVTCVVVDVSHEDPEVKFNWYVDGVEVHNAKTKPREEQYASTYRVVSVLTVLHQDWLNGKEYKCKVSNKALPAPIEKTISKAKGQPREPQVYTLPPSRCELTKNQVSLSCAVKGFYPSDIAVEWESNGQPENNYKTTPPVLDSDGSFFLVSKLTVDKSRWQQGNVFSCSVMHEALHNHYTQKSLSLSPDYKDDDDK EPKSSDKTHTCPPCPAPELLGGPSVFLFPPKPKDTLMISRTPEVTCVVVDVSHEDPEVKFNWYVDGVEVHNAKTKPREEQYNSTYRVVSVLTVLHQDWLNGKEYKCKVSNKALPAPIEKTISKAKGQPREPQVCTLPPSRDELTKNQVSLWCLVKGFYPSDIAVEWESNGQPENNYKTTPPVLDSDGSFFLYSKLTVDKSRWQQGNVFSCSVMHEALHNRYTQKSLSLSP light: DIVMTQSPLSLPVTPGEPASISCRSSQSLVHSNRNTYLHWYQQKPGQAPRLLIYKVSNRFSGVPDRFSGSGSGTDFTLKISRVEAEDVGVYYCGQGTQWPYTFGQGTKLEIKRTVAAPSVFIFPPSDEQLKSGTASVVCLLNNFYPREAKVQWKVDNALQSGNSQESVTEQDSKDSTYSLSSTLTLSKADYEKHKVYACEVTHQGLSSPVTKSFNRGEC |
| 0.93 | GLS3000 V94T one-arm antibody (antibody, human IgG1, kappa, L234A L235A, N297A, name in Kabat numbering) heavy: QVQLVESGGGVVQPGRSLRLSCAASGFTFSNAWMHWVRQAPGKGLEWVAQIKAKSNNYATYYAESVKGRFTISRDDSKNSLYLQMNSLKTEDTAVYYCRYVHYGAYYGVDAWGQGTTVTVSSASTKGPSVFPLAPSSKSTSGGTAALGCLVKDYFPEPVTVSWNSGALTSGVHTFPAVLQSSGLYSLSSVVTVPSSSLGTQTYICNVNHKPSNTKVDKKVEPKSCDKTHTCPPCPAPEAAGGPSVFLFPPKPKDTLMISRTPEVTCVVVDVSHEDPEVKFNWYVDGVEVHNAKTKPREEQYASTYRVVSVLTVLHQDWLNGKEYKCKVSNKALPAPIEKTISKAKGQPREPQVYTLPPSRCELTKNQVSLSCAVKGFYPSDIAVEWESNGQPENNYKTTPPVLDSDGSFFLVSKLTVDKSRWQQGNVFSCSVMHEALHNHYTQKSLSLSPDYKDDDDK EPKSSDKTHTCPPCPAPELLGGPSVFLFPPKPKDTLMISRTPEVTCVVVDVSHEDPEVKFNWYVDGVEVHNAKTKPREEQYNSTYRVVSVLTVLHQDWLNGKEYKCKVSNKALPAPIEKTISKAKGQPREPQVCTLPPSRDELTKNQVSLWCLVKGFYPSDIAVEWESNGQPENNYKTTPPVLDSDGSFFLYSKLTVDKSRWQQGNVFSCSVMHEALHNRYTQKSLSLSP light: DIVMTQSPLSLPVTPGEPASISCRSSQSLVHSNRNTYLHWYQQKPGQAPRLLIYKVSNRFSGVPDRFSGSGSGTDFTLKISRVEAEDVGVYYCGQGTQTPYTFGQGTKLEIKRTVAAPSVFIFPPSDEQLKSGTASVVCLLNNFYPREAKVQWKVDNALQSGNSQESVTEQDSKDSTYSLSSTLTLSKADYEKHKVYACEVTHQGLSSPVTKSFNRGEC |
| 0.93 | GLS3000 V94S one-arm antibody (antibody, human IgG1, kappa, L234A L235A, N297A, name in Kabat numbering) heavy: QVQLVESGGGVVQPGRSLRLSCAASGFTFSNAWMHWVRQAPGKGLEWVAQIKAKSNNYATYYAESVKGRFTISRDDSKNSLYLQMNSLKTEDTAVYYCRYVHYGAYYGVDAWGQGTTVTVSSASTKGPSVFPLAPSSKSTSGGTAALGCLVKDYFPEPVTVSWNSGALTSGVHTFPAVLQSSGLYSLSSVVTVPSSSLGTQTYICNVNHKPSNTKVDKKVEPKSCDKTHTCPPCPAPEAAGGPSVFLFPPKPKDTLMISRTPEVTCVVVDVSHEDPEVKFNWYVDGVEVHNAKTKPREEQYASTYRVVSVLTVLHQDWLNGKEYKCKVSNKALPAPIEKTISKAKGQPREPQVYTLPPSRCELTKNQVSLSCAVKGFYPSDIAVEWESNGQPENNYKTTPPVLDSDGSFFLVSKLTVDKSRWQQGNVFSCSVMHEALHNHYTQKSLSLSPDYKDDDDK EPKSSDKTHTCPPCPAPELLGGPSVFLFPPKPKDTLMISRTPEVTCVVVDVSHEDPEVKFNWYVDGVEVHNAKTKPREEQYNSTYRVVSVLTVLHQDWLNGKEYKCKVSNKALPAPIEKTISKAKGQPREPQVCTLPPSRDELTKNQVSLWCLVKGFYPSDIAVEWESNGQPENNYKTTPPVLDSDGSFFLYSKLTVDKSRWQQGNVFSCSVMHEALHNRYTQKSLSLSP light: DIVMTQSPLSLPVTPGEPASISCRSSQSLVHSNRNTYLHWYQQKPGQAPRLLIYKVSNRFSGVPDRFSGSGSGTDFTLKISRVEAEDVGVYYCGQGTQSPYTFGQGTKLEIKRTVAAPSVFIFPPSDEQLKSGTASVVCLLNNFYPREAKVQWKVDNALQSGNSQESVTEQDSKDSTYSLSSTLTLSKADYEKHKVYACEVTHQGLSSPVTKSFNRGEC |

The remaining lines, values behind:

| Binder | ratio of amount bound vs unaltered GLS3000 |
| --- | --- |
| GLS3000 V94P one-arm antibody (antibody, human IgG1, kappa, L234A L235A, N297A, name in Kabat numbering) heavy: QVQLVESGGGVVQPGRSLRLSCAASGFTFSNAWMHWVRQAPGKGLEWVAQIKAKSNNYATYYAESVKGRFTISRDDSKNSLYLQMNSLKTEDTAVYYCRYVHYGAYYGVDAWGQGTTVTVSSASTKGPSVFPLAPSSKSTSGGTAALGCLVKDYFPEPVTVSWNSGALTSGVHTFPAVLQSSGLYSLSSVVTVPSSSLGTQTYICNVNHKPSNTKVDKKVEPKSCDKTHTCPPCPAPEAAGGPSVFLFPPKPKDTLMISRTPEVTCVVVDVSHEDPEVKFNWYVDGVEVHNAKTKPREEQYASTYRVVSVLTVLHQDWLNGKEYKCKVSNKALPAPIEKTISKAKGQPREPQVYTLPPSRCELTKNQVSLSCAVKGFYPSDIAVEWESNGQPENNYKTTPPVLDSDGSFFLVSKLTVDKSRWQQGNVFSCSVMHEALHNHYTQKSLSLSPDYKDDDDK EPKSSDKTHTCPPCPAPELLGGPSVFLFPPKPKDTLMISRTPEVTCVVVDVSHEDPEVKFNWYVDGVEVHNAKTKPREEQYNSTYRVVSVLTVLHQDWLNGKEYKCKVSNKALPAPIEKTISKAKGQPREPQVCTLPPSRDELTKNQVSLWCLVKGFYPSDIAVEWESNGQPENNYKTTPPVLDSDGSFFLYSKLTVDKSRWQQGNVFSCSVMHEALHNRYTQKSLSLSP light: DIVMTQSPLSLPVTPGEPASISCRSSQSLVHSNRNTYLHWYQQKPGQAPRLLIYKVSNRFSGVPDRFSGSGSGTDFTLKISRVEAEDVGVYYCGQGTQPPYTFGQGTKLEIKRTVAAPSVFIFPPSDEQLKSGTASVVCLLNNFYPREAKVQWKVDNALQSGNSQESVTEQDSKDSTYSLSSTLTLSKADYEKHKVYACEVTHQGLSSPVTKSFNRGEC | 1.26 |
| GLS3000 V94R one-arm antibody (antibody, human IgG1, kappa, L234A L235A, N297A, name in Kabat numbering) heavy: QVQLVESGGGVVQPGRSLRLSCAASGFTFSNAWMHWVRQAPGKGLEWVAQIKAKSNNYATYYAESVKGRFTISRDDSKNSLYLQMNSLKTEDTAVYYCRYVHYGAYYGVDAWGQGTTVTVSSASTKGPSVFPLAPSSKSTSGGTAALGCLVKDYFPEPVTVSWNSGALTSGVHTFPAVLQSSGLYSLSSVVTVPSSSLGTQTYICNVNHKPSNTKVDKKVEPKSCDKTHTCPPCPAPEAAGGPSVFLFPPKPKDTLMISRTPEVTCVVVDVSHEDPEVKFNWYVDGVEVHNAKTKPREEQYASTYRVVSVLTVLHQDWLNGKEYKCKVSNKALPAPIEKTISKAKGQPREPQVYTLPPSRCELTKNQVSLSCAVKGFYPSDIAVEWESNGQPENNYKTTPPVLDSDGSFFLVSKLTVDKSRWQQGNVFSCSVMHEALHNHYTQKSLSLSPDYKDDDDK EPKSSDKTHTCPPCPAPELLGGPSVFLFPPKPKDTLMISRTPEVTCVVVDVSHEDPEVKFNWYVDGVEVHNAKTKPREEQYNSTYRVVSVLTVLHQDWLNGKEYKCKVSNKALPAPIEKTISKAKGQPREPQVCTLPPSRDELTKNQVSLWCLVKGFYPSDIAVEWESNGQPENNYKTTPPVLDSDGSFFLYSKLTVDKSRWQQGNVFSCSVMHEALHNRYTQKSLSLSP light: DIVMTQSPLSLPVTPGEPASISCRSSQSLVHSNRNTYLHWYQQKPGQAPRLLIYKVSNRFSGVPDRFSGSGSGTDFTLKISRVEAEDVGVYYCGQGTQRPYTFGQGTKLEIKRTVAAPSVFIFPPSDEQLKSGTASVVCLLNNFYPREAKVQWKVDNALQSGNSQESVTEQDSKDSTYSLSSTLTLSKADYEKHKVYACEVTHQGLSSPVTKSFNRGEC | 0.66 |
| GLS3000 V94Q one-arm antibody (antibody, human IgG1, kappa, L234A L235A, N297A, name in Kabat numbering) heavy: QVQLVESGGGVVQPGRSLRLSCAASGFTFSNAWMHWVRQAPGKGLEWVAQIKAKSNNYATYYAESVKGRFTISRDDSKNSLYLQMNSLKTEDTAVYYCRYVHYGAYYGVDAWGQGTTVTVSSASTKGPSVFPLAPSSKSTSGGTAALGCLVKDYFPEPVTVSWNSGALTSGVHTFPAVLQSSGLYSLSSVVTVPSSSLGTQTYICNVNHKPSNTKVDKKVEPKSCDKTHTCPPCPAPEAAGGPSVFLFPPKPKDTLMISRTPEVTCVVVDVSHEDPEVKFNWYVDGVEVHNAKTKPREEQYASTYRVVSVLTVLHQDWLNGKEYKCKVSNKALPAPIEKTISKAKGQPREPQVYTLPPSRCELTKNQVSLSCAVKGFYPSDIAVEWESNGQPENNYKTTPPVLDSDGSFFLVSKLTVDKSRWQQGNVFSCSVMHEALHNHYTQKSLSLSPDYKDDDDK EPKSSDKTHTCPPCPAPELLGGPSVFLFPPKPKDTLMISRTPEVTCVVVDVSHEDPEVKFNWYVDGVEVHNAKTKPREEQYNSTYRVVSVLTVLHQDWLNGKEYKCKVSNKALPAPIEKTISKAKGQPREPQVCTLPPSRDELTKNQVSLWCLVKGFYPSDIAVEWESNGQPENNYKTTPPVLDSDGSFFLYSKLTVDKSRWQQGNVFSCSVMHEALHNRYTQKSLSLSP light: DIVMTQSPLSLPVTPGEPASISCRSSQSLVHSNRNTYLHWYQQKPGQAPRLLIYKVSNRFSGVPDRFSGSGSGTDFTLKISRVEAEDVGVYYCGQGTQQPYTFGQGTKLEIKRTVAAPSVFIFPPSDEQLKSGTASVVCLLNNFYPREAKVQWKVDNALQSGNSQESVTEQDSKDSTYSLSSTLTLSKADYEKHKVYACEVTHQGLSSPVTKSFNRGEC | 0.76 |
